Test results reported in PMC10591846 (Cell reports, 2023).
Where no end group is shown, it is not given here. The star is where a group is joined. Biotin = O=C1N[C@H]2[C@H](CS[C@H]2CCCCC(=O)*)N1

T1: GST-Pirh2_(15-195) (human, UniProt Q96PM5 15-195)
T1 sequence: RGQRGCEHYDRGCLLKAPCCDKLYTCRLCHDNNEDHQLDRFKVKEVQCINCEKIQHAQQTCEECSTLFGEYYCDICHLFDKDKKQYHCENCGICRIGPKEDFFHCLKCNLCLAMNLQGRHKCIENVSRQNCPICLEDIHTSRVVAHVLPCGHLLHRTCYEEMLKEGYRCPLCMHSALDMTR

T2: GST-Pirh2_(1–195) (human, UniProt Q96PM5 1-195)
T2 sequence: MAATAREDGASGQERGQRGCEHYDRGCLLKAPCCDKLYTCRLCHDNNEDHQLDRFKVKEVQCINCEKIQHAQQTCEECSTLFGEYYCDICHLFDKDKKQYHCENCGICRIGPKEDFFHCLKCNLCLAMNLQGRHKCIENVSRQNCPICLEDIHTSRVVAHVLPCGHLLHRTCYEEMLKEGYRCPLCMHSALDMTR


Key:
Experiment in all cases: AlphaScreen or HTRF
GST-Pirh2_(15-195) = biological target: T1, GST-Pirh2_(15-195)
[1] = biological target: GST-KLHDC10 (full length) with Elongin B/C (human | , UniProt Q6PID8 1-442; Q15370 1-104; Q15369 1-112)
GST-Pirh2_(1–195) = biological target: T2, GST-Pirh2_(1–195)

Sequence of GST-KLHDC10 (full length) with Elongin B/C (Q6PID8 whole entry, chain 1 of 2): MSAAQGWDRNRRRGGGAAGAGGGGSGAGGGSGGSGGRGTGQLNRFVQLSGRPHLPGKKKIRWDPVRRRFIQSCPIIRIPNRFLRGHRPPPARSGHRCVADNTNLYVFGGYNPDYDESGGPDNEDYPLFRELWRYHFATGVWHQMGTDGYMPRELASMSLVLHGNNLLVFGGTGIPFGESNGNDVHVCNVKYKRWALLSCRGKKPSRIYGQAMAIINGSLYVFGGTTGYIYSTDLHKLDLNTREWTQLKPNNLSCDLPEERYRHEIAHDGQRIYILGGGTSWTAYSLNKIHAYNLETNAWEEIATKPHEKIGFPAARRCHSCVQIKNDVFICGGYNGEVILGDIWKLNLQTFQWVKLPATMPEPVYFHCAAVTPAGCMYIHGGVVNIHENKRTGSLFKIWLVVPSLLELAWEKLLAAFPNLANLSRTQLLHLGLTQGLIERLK
Sequence of GST-KLHDC10 (full length) with Elongin B/C (Q15369 whole entry, chain 3 of 2): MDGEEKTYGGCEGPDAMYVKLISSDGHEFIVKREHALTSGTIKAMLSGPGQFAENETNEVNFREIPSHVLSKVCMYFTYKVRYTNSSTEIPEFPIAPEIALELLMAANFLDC

binding result (GST-Pirh2_(15-195))	IC50 (GST-Pirh2_(15-195)) [nM]	Binder	further results
binds		LYKAAAAA	
		MDELYKAAAAAA-NH2 [MDELYKAAAAAA-NH2]	fold reduction of affinity against the Ala-tail peptide with free carboxyl (GST-Pirh2_(15-195)): ~2000 fold
binds		KAAAAA	
binds		DELYKAAAAA	
	~50	MDELYKAAAAA	
binds		ELYKAAAAA	
		Biotin-MDELYKAAAAAA [Biotin-MDELYKAAAAAA]	binding result [1]: binds
		MDELYKAAGAAA	fold reduction of binding against the Ala6 peptide (GST-Pirh2_(15-195)): 100 fold
	~26000	MDELYKAAAAAD	
	~60	MDELYKLAAAAA	
		MDELYKAAALAA	fold reduction of binding against the Ala6 peptide (GST-Pirh2_(15-195)): 3 fold
	~2000	MDELYKAAAAAG	
	~60	MDELYKGAAAAA	
	50 to 120	MDELYKAAAAAA [MDELYKAAAAAA (Ala-tail peptide, non-biotinylated)]	IC50 [1]: 5 to 10 nM; IC50 (GST-Pirh2_(1–195)): 90 to 120 nM
binds		YKAAAAA	
binds		MDELAAAAA	
	~2000	MDELYKAAAA	
